According to PMC7948495, “The flexible N-terminus of BchL autoinhibits activity through interaction with its [4Fe-4S] cluster and released upon ATP binding” (The Journal of Biological Chemistry, 2020):

Target: BchNB (NB-protein of DPOR) from Rhodobacter sphaeroides (Rhodobacter sphaeroides)

In the case of “linked-BchL (two BchL subunits expressed as a single polypeptide, joined by a flexible linker) (enzyme)”, the kobs of Pchlide reduction measured as Chlide formation (with BchNB, Pchlide and ATP) is reported as 0.0148 µM/min.
